Test results reported in US20210246191A1 (BIONTECH, published 2021).
Changes are numbered by the printed parent chain. Bridge positions count the residues as written; N and C are the ends. Ends that are not written are not given here.

Legend:
[1] = target: FN-67B89 (recombinant human fibronectin EDB flanked by its surrounding type III domains, C-terminal hexahistidine tag) (human) (UniProt P02751); assay: SPR, biotinylated FN-67B89 on streptavidin sensor, 50-4000 nM, 1:1 Langmuir fit
[2] = target: FN-67B89 (recombinant human fibronectin EDB flanked by its surrounding type III domains, C-terminal hexahistidine tag) (human) (UniProt P02751); assay: SPR single cycle kinetics, biotinylated FN-67B89 on streptavidin chip, 1.25-10 nM, 1:1 Langmuir fit
bovine serum albumin = target: T1, bovine serum albumin (bovine, UniProt P02769 25-607); assay: ELISA, 200 nM Trx-miniprotein on coated protein (1 µg/well), duplicates
T1 construct: Control protein coated in ELISA; also called BSA
T1 sequence (P02769 25-607 limits assumed): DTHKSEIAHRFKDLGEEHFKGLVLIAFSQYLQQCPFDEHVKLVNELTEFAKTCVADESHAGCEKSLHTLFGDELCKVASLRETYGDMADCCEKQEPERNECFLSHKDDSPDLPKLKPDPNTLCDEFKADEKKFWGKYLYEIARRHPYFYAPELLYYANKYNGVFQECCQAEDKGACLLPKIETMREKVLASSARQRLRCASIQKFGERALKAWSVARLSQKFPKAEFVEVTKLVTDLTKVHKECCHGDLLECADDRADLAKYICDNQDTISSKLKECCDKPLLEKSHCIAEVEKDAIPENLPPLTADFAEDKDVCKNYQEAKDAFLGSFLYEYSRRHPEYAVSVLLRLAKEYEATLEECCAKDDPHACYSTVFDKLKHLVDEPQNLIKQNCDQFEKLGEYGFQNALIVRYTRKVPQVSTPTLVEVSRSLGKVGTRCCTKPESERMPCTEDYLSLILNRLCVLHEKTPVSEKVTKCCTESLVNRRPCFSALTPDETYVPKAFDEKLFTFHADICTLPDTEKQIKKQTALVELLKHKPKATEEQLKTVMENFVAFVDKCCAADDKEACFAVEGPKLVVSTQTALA
Method: FIG. 5: Extended specificity analysis of Trx-cystine-knot miniprotein clones MCopt 1.0-2/-3 and MCopt 2.0-1/-2/3. […] ELISA was performed in duplicates, error bars represent standard deviation and Trx-MC-Myc-010 served as negative cystine-knot miniprotein control.
(§1) ELISA was used as technique to analyze protein-protein interactions. Cavities of 96-well microtiter plates (Nunc MaxiSorp™, Thermo Fisher Scientific) were coated with 1 μg FN-B, bovine serum albumin (BSA, Eurobio), milk powder, streptavidin (Sigma Aldrich), T7-His-TEV-B (LD BioPharma), FN-B(8-14) (R&D Systems), lysozyme, ovalbumin (GE Healthcare Life Science), aldolase (GE Healthcare Life Science) or 0.6 μg anti-c-myc-antibody (M4439, Sigma) overnight at 4° C. The wells were washed three times with PBS-T (1×PBS with 0.1% (w/v) Tween-20), blocked with 1× Casein buffer (Sigma Aldrich) diluted in PBS for 2 h at RT and washed again as described. […] After three times of washing with PBS-T, binding of the respective variant was detected with a horseradish peroxidase (HRP)-conjugated anti-S-tag antibody (ab18589 or ab19324, Abeam). Enzymatic reaction was measured with TMB as a chromogenic substrate and stopped with 0.2 M HCl after approximately 5 min. The measurement of absorbance at 450 nm was performed using an Infinite M200 PRO Microplate Reader (Tecan).

[3] = target: T2, FN-B (recombinant human fibronectin EDB as a single domain, C-terminal hexahistidine tag) (human, UniProt P02751 1266-1356, Biotinylated on primary amines only for the phage screening; coated unmodified in the ELISAs); assay: ELISA titration of Trx-miniprotein on coated protein (1 µg/well), HRP anti-S-tag antibody, duplicates [continued), panel MCopt 1.0-3]
T2 construct: Made in E. coli (pET-21a); Residue numbers count on isoform 7 of P02751; Biotinylated on primary amines for the phage screening; also called Fibronectin Extra Domain B; single domain FN-B
T2 sequence (P02751 other isoform, or with tags, fused parts or gaps limits assumed): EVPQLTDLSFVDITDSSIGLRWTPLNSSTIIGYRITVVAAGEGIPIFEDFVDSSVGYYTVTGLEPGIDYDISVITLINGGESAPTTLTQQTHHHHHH
Method: (§2) FIG. 6: Saturation-binding curves of MCopt 1.0-2/-3 and MCopt 2.0-1/-2/-3 EDB binding. […] Binding of Trx-cystine-knot miniproteins was detected with an HRP-conjugated anti-s-tag-antibody. ELISAs were performed in duplicates (single values for FN-B(8-14)).
as §1

[4] = target: T3, FN-B(8-14) (R&D Systems), EDB with C-terminal domains 8-13 and 1/2 of domain 14 (UniProt P02751 1265-1908); assay: ELISA titration of Trx-miniprotein on coated protein (1 µg/well), HRP anti-S-tag antibody, single values [continued), panel MCopt 1.0-3]
T3 construct: domain: EDB with C-terminal domains 8-13 and 1/2 of domain 14; Bought
T3 sequence (P02751 1265-1908 limits assumed): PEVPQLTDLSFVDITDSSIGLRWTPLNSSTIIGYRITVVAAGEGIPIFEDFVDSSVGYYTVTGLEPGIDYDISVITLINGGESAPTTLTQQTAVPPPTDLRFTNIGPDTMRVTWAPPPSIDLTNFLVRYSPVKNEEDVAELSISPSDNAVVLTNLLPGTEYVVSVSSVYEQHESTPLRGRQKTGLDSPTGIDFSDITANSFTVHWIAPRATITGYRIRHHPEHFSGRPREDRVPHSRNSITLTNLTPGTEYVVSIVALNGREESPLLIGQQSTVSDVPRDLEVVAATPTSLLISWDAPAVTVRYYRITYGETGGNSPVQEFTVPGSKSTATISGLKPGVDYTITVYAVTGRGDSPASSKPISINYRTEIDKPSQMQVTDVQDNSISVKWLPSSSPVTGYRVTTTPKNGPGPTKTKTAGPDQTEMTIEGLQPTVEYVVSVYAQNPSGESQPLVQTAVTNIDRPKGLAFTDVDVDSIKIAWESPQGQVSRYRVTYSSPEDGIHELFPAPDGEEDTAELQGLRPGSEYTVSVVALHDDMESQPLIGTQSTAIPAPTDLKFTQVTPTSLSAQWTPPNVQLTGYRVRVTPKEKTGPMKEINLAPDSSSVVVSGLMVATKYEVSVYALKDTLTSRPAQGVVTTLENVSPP
Method: as §2, §1

[5] = target: FN-67B89 (recombinant human fibronectin EDB flanked by its surrounding type III domains, C-terminal hexahistidine tag) (human) (UniProt P02751); assay: ELISA titration of Trx-miniprotein on coated protein (1 µg/well), HRP anti-S-tag antibody, duplicates [continued), panel MCopt 1.0-3]
[6] = target: FN-67B89 (recombinant human fibronectin EDB flanked by its surrounding type III domains, C-terminal hexahistidine tag) (human) (UniProt P02751); assay: SPR, biotinylated FN-67B89 on streptavidin sensor, 1.25-10 nM, 1:1 Langmuir fit
[7] = target: FN-67B89 (recombinant human fibronectin EDB flanked by its surrounding type III domains, C-terminal hexahistidine tag) (human) (UniProt P02751); assay: SPR, biotinylated FN-67B89 on streptavidin sensor, 62.5-4000 nM, 1:1 Langmuir fit
[8] = target: T2, FN-B (recombinant human fibronectin EDB …); assay: ELISA, Trx fusion 50 to 1.563 nM on coated FN-B, HRP anti-S-tag antibody; relative binding from apparent binding constants against parental MC-FN-010, three assays
[9] = target: T4, FN-6789 (recombinant human fibronectin type III domains 6-9 without EDB, C-terminal hexahistidine tag) (human, UniProt P02751-1 1085-1446, limits assumed); assay: ELISA, 1.56 to 50 nM Trx-miniprotein on 1 µg coated protein per well, 50 ng HRP anti-S-tag antibody, duplicates
T4 construct: domain: domains 6-9 without EDB; Control protein
T4 sequence (P02751 other isoform, or with tags, fused parts or gaps limits assumed): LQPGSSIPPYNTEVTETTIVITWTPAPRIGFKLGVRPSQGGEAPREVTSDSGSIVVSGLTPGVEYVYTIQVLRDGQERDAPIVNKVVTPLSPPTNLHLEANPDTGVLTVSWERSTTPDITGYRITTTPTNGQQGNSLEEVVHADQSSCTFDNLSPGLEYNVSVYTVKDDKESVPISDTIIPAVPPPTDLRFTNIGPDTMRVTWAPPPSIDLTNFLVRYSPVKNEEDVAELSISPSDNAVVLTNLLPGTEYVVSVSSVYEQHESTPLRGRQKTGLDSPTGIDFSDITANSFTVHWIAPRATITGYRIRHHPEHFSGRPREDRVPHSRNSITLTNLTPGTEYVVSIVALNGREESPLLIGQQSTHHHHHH

B1: MC-FN-010 (tag-free cystine-knot miniprotein) (designed binder)
chain: PMCTQRKNRIRLCRRDSDCTGACICRGNGYCG
modifications: disulfide 13-25; disulfide (positions not given here); not fully specified (bridges)
**Q.** Which results are given for B1?
**A.** Kd [1]: 1580 nM; koff [1]: 0.0783 s⁻¹; kon [1]: 49500 M⁻¹ s⁻¹

B2: AF680-(MC-FN-016)3 (trimeric MC-FN-016 conjugated with Alexa Fluor 680) (designed binder)
peptide: B1 chain with K7A
modifications: ends and bridges not checked; also: trimer via oxime ligation, Alexa Fluor 680 label
**Q.** How did the Kd [2] turn out when B2 was run?
**A.** 0.902 nM

**Q.** And the koff [2]?
**A.** 0.00231 s⁻¹

**Q.** And the kon [2]?
**A.** 2.56e+06 M⁻¹ s⁻¹

B3: AF680-(MC-FN-010)3 (trimeric MC-FN-010 conjugated with Alexa Fluor 680) (designed binder)
peptide: B1 chain
modifications: ends and bridges not checked; also: trimer via oxime ligation, Alexa Fluor 680 label
**Q.** With B3 as the binder, how does the Kd [2] read?
**A.** 0.431 nM

**Q.** And the koff [2]?
**A.** 0.00347 s⁻¹

**Q.** What about the kon [2] of the same binder?
**A.** 8.04e+06 M⁻¹ s⁻¹

B4: Trx-MC-FN-010 (thioredoxin fusion of cystine-knot miniprotein MC-FN-010) (designed binder)
chain: B1 chain
modifications: not fully specified; cysteine pairing not given here; also: fused to E. coli thioredoxin with His6-tag, S-tag and thrombin site
notes: also called Trx-MCopt 1.0-3; MCopt 1.0-3; not shown: E. coli thioredoxin-A, fusion partner from vector pET-32-LibEx; H6-tag, s-tag and thrombin cleavage site of pET-32-LibEx
**Q.** Does B4 bind (bovine serum albumin)?
**A.** no binding (tested: 200 nM)

**Q.** And the “EC50 (read off the curve)” value [3]?
**A.** ~4 nM

**Q.** And the “EC50 (read off the curve)” value [4]?
**A.** ~10 nM

**Q.** What about the EC50 (read off the curve) [5] of the same binder?
**A.** 10 nM

**Q.** How did the Kd [6] turn out when PMCTQRANRIRLCRRDSDCTGACICRGNGYCG (designed binder, ends and bridges not checked; also: trimer, DOTA on trimer, site not given here) [DOTA-(MC-FN-016)3 (unlabeled trimeric probe)] was run?
**A.** 0.624 nM

**Q.** What about the koff [6] of the same binder?
**A.** 0.00226 s⁻¹

**Q.** And the kon [6]?
**A.** 3.73e+06 M⁻¹ s⁻¹

B5: MC-FN-016 (tag-free cystine-knot miniprotein) (designed binder)
chain: B1 chain with K7A
modifications: disulfide 13-25; disulfide (positions not given here); not fully specified (bridges)
**Q.** What does the source list for B5?
**A.** Kd [7]: 1410 nM; koff [7]: 0.187 s⁻¹; kon [7]: 133000 M⁻¹ s⁻¹

B6: Trx-MC-FN-018 (designed binder, not shown: large carriers; small tags and cut ends)
chain: B1 chain with R9A
modifications: disulfide 13-25, 19-31, 3-23; also: N-terminal thioredoxin fusion carrier (Trx, H6-tag, S-tag, thrombin site), no letters given
notes: alanine scan variant of MC-FN-010
**Q.** Does B6 bind [8]?
**A.** no binding (tested: 50 nM)

B7: Trx-MC-FN-019 (designed binder, not shown: large carriers; small tags and cut ends)
chain: B1 chain with I10A
modifications: disulfide 13-25, 19-31, 3-23; also: N-terminal thioredoxin fusion carrier (Trx, H6-tag, S-tag, thrombin site), no letters given
notes: as for B6
**Q.** Does B7 bind [8]?
**A.** no binding (tested: 50 nM)

B8: Trx-MC-FN-0111 (designed binder, not shown: large carriers; small tags and cut ends)
chain: B1 chain with L12A
modifications: disulfide 13-25, 19-31, 3-23; also: N-terminal thioredoxin fusion carrier (Trx, H6-tag, S-tag, thrombin site), no letters given
notes: as for B6
**Q.** Does B8 bind [8]?
**A.** no binding (tested: 50 nM)

B9: Trx-MC-FN-016 (thioredoxin fusion of cystine-knot miniprotein MC-FN-016) (designed binder)
chain: B1 chain with K7A
modifications: not fully specified (N-terminus, bridges); cysteine pairing not given here; also: N-terminal thioredoxin fusion carrier (Trx, H6-tag, S-tag, thrombin site), no letters given
notes: not shown: E. coli thioredoxin-A, fusion partner from vector pET-32-LibEx; H6-tag, s-tag and thrombin cleavage site of pET-32-LibEx
**Q.** Does B9 bind [9]?
**A.** no binding (tested: 50 nM)

B10: Trx-MC-FN-0110 (designed binder, not shown: large carriers; small tags and cut ends)
chain: B1 chain with R11A
modifications: disulfide 13-25, 19-31, 3-23; also: N-terminal thioredoxin fusion carrier (Trx, H6-tag, S-tag, thrombin site), no letters given
notes: as for B6
**Q.** Does B10 bind [8]?
**A.** no binding (tested: 50 nM)

B11: Trx-MC-FN-0114 (designed binder)
peptide: B1 chain with R26A
modifications: disulfide 13-25, 19-31, 3-23; also: N-terminal thioredoxin fusion carrier (Trx, H6-tag, S-tag, thrombin site), no letters given
notes: alanine scan variant of MC-FN-010; not shown: N-terminal carrier from vector pET-32-LibEx (E. coli thioredoxin-A, H6-tag, S-tag, thrombin site and their linkers)
**Q.** Does B11 bind [8]?
**A.** no binding (tested: 50 nM)
